Assay results: patent US7838249 (BOARD OF REGENTS OF THE UNIVERSITY OF OKLAHOMA, dated 2010)

B1: 6-His-Rabaptin-5(551-661) (other)
chain: HHHHHHAETRDQVKKLQLMLRQANDQLEKTMKDKQELEDFIKQSSEDSSHQISALVLRAQASEILLEELQQGLSQAKRDVQEQMAVLMQSREQVSEELVRLQKDNDSLQGKHSLHVS
notes: Purified from E. coli BL21(DE3)
B2: 6-His-Rabaptin-5(551-862) (other)
chain: HHHHHHAETRDQVKKLQLMLRQANDQLEKTMKDKQELEDFIKQSSEDSSHQISALVLRAQASEILLEELQQGLSQAKRDVQEQMAVLMQSREQVSEELVRLQKDNDSLQGKHSLHVSLQQAEDFILPDTTEALRELVLKYREDIINVRTAADHVEEKLKAEILFLKEQIQAEQCLKENLEETLQLEIENCKEEIASISSLKAELERIKVEKGQLESTLREKSQQLESLQEIKISLEEQLKKETAAKATVEQLMFEEKNKAQRLQTELDVSEQVQRDFVKLSQTLQVQLERIRQADSLERIRAILNDTKLTDINQLPET

Key:
[1] = molecular target: TrkA (high-affinity NGF receptor), expressed in PC12 cells from pBI/TrkA; experiment: cell-based or functional assay
Chain of TrkA (high-affinity NGF receptor), expressed in PC12 cells from pBI/TrkA (P35739 33-799): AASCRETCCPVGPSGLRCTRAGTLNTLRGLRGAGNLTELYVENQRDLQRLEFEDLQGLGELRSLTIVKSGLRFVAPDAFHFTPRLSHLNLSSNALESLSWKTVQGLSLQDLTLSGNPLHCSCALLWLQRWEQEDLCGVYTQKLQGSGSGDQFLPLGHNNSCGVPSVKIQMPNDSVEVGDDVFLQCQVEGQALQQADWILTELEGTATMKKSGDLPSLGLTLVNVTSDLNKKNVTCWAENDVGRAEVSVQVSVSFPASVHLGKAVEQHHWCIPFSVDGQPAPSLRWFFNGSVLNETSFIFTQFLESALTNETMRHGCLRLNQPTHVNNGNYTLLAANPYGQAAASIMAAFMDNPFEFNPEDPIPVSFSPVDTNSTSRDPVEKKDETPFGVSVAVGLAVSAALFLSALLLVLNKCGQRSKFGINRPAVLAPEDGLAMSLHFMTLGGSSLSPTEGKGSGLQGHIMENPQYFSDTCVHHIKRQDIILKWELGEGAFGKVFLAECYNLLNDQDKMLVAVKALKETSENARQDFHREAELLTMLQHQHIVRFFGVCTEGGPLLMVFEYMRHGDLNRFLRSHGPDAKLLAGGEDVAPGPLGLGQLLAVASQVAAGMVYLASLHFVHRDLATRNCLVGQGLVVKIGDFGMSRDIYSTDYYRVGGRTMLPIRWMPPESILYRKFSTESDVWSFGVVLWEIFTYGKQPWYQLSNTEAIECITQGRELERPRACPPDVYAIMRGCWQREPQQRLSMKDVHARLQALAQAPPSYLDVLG

GST-Rabex-5(135-399) = molecular target: T1, GST-Rabex-5(135-399) (Bos taurus, UniProt O18973 135-399); experiment: GST pull-down, SDS-PAGE, Coomassie staining
T1 construct: Immobilized on glutathione Sepharose-4B; also called the GEF domain itself
T1 sequence (O18973 other isoform, or with tags, fused parts or gaps limits assumed): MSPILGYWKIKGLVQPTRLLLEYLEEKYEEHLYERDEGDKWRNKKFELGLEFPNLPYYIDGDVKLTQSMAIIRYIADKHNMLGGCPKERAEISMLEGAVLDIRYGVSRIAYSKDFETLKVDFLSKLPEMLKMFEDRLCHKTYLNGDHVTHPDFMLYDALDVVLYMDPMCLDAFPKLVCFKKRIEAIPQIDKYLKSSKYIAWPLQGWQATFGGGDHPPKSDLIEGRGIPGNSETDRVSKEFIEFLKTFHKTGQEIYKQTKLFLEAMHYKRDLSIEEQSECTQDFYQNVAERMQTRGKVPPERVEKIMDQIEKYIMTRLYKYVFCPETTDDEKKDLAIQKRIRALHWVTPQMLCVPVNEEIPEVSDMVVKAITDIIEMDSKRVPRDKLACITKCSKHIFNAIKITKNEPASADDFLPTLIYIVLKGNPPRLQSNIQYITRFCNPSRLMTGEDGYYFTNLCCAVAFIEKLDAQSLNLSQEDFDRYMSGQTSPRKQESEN
Protocol: The final concentration of each protein was <2 μM for detection of specific binding. The resins were subsequently washed three times with phosphate-buffered saline (PBS) and resuspended in 20 μl of SDS sample buffer. The samples were subjected to 20% SDS-PAGE analysis, and the proteins were visualized by Coomassie brilliant blue staining.
The bound proteins were analyzed by SDS-PAGE and visualized by Coomassie blue staining. […] Molecular mass standards (in kilodaltons) are indicated on the left of the panel.

| Molecule | NGF-mediated neurite outgrowth (percentage of differentiated PC12 cells) [1] [%] | binding result (GST-Rabex-5(135-399)) |
| --- | --- | --- |
| Myc-tagged RabGAP5-C (residues 441-749) (from UniProt F1LQU9 454-763) | 20 |  |
| B1 |  | no binding |
| B2 |  | no binding |
